What follows are sequences tested on Escherichia coli TOP10 (assay: shrunken log2 fold change of peptide-encoding DNA abundance (4.5 h post-induction vs induction); higher = less antimicrobial activity (less host growth inhibition)). Settings: time post-induction: 4.5 h; library: site-saturation at positions 5, 18, 19, 20.
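Also: peptides expressed intracellularly from a pBAD plasmid library in pooled LB shake-flask culture, induced with 0.3% L-arabinose, DNA abundance read by NGS, three biological replicates, DESeq2 with apeglm shrinkage.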

| Sequence | shrunken log2 fold change |
| --- | --- |
| RRIRQRPPRLPRPRPRPGYWPRP | -0.116 |
| RRIRGRPPRLPRPRPRPMTPPRP | 1.07 |
| RRIRWRPPRLPRPRPRPLTQPRP | 0.307 |
| RRIRKRPPRLPRPRPRPVRTPRP | 0.583 |
| RRIRTRPPRLPRPRPRPDQEPRP | 0.105 |
| RRIRARPPRLPRPRPRPFWGPRP | 0.0148 |
| RRIRMRPPRLPRPRPRPYPSPRP | -0.0577 |
| RRIRQRPPRLPRPRPRPFCSPRP | 0.036 |
| RRIRERPPRLPRPRPRPYLTPRP | -0.424 |
| RRIRWRPPRLPRPRPRPDPVPRP | 0.0369 |
| RRIRWRPPRLPRPRPRPFSWPRP | 0.0632 |
| RRIRLRPPRLPRPRPRPDGDPRP | 0.234 |
| RRIRHRPPRLPRPRPRPQNPPRP | -0.0256 |
| RRIRHRPPRLPRPRPRPLYPPRP | -0.804 |
| RRIRHRPPRLPRPRPRPVEDPRP | -0.0354 |
| RRIRVRPPRLPRPRPRPRDRPRP | 0.46 |
| RRIRMRPPRLPRPRPRPTPNPRP | 0.87 |
| RRIRSRPPRLPRPRPRPYIIPRP | -0.502 |
| RRIRERPPRLPRPRPRPLDTPRP | 0.213 |
| RRIRHRPPRLPRPRPRPYPYPRP | -0.43 |
| RRIRTRPPRLPRPRPRPLSRPRP | -0.45 |
| RRIRDRPPRLPRPRPRPLFGPRP | 0.341 |

| Sequence | shrunken log2 fold change |
| --- | --- |
| RRIRCRPPRLPRPRPRPVPAPRP | 0.457 |
| RRIRDRPPRLPRPRPRPDMHPRP | 0.633 |
| RRIRFRPPRLPRPRPRPPQRPRP | 0.617 |
| RRIRARPPRLPRPRPRPWNQPRP | -0.247 |
| RRIRFRPPRLPRPRPRPQKNPRP | 0.16 |
| RRIRYRPPRLPRPRPRPITFPRP | -0.864 |
| RRIRTRPPRLPRPRPRPHLMPRP | -0.139 |
| RRIRNRPPRLPRPRPRPSQNPRP | -0.386 |
| RRIRFRPPRLPRPRPRPGRKPRP | 0.107 |
| RRIRKRPPRLPRPRPRPYRFPRP | -0.244 |
| RRIRTRPPRLPRPRPRPFDIPRP | -0.018 |
| RRIRTRPPRLPRPRPRPILAPRP | 0.00499 |
| RRIRFRPPRLPRPRPRPADRPRP | -0.0752 |
| RRIRYRPPRLPRPRPRPNIYPRP | -0.68 |
| RRIRARPPRLPRPRPRPQTTPRP | 0.768 |
| RRIRQRPPRLPRPRPRPMSNPRP | 0.0758 |
| RRIRLRPPRLPRPRPRPPKMPRP | 0.159 |
| RRIRERPPRLPRPRPRPMKLPRP | -0.0902 |
| RRIRCRPPRLPRPRPRPNQCPRP | 2.64 |
| RRIRKRPPRLPRPRPRPEEDPRP | 0.0229 |
| RRIRARPPRLPRPRPRPIHLPRP | -0.633 |
| RRIRGRPPRLPRPRPRPTITPRP | 0.526 |

| Sequence | shrunken log2 fold change |
| --- | --- |
| RRIRNRPPRLPRPRPRPACGPRP | 0.547 |
| RRIRWRPPRLPRPRPRPGTHPRP | 0.158 |
| RRIRPRPPRLPRPRPRPTTPPRP | 0.322 |
| RRIRCRPPRLPRPRPRPNMYPRP | -0.916 |
| RRIRNRPPRLPRPRPRPYAKPRP | -0.257 |
| RRIRPRPPRLPRPRPRPWKFPRP | -0.0127 |
| RRIRTRPPRLPRPRPRPHFMPRP | -0.339 |
| RRIRMRPPRLPRPRPRPPIRPRP | 0.248 |
| RRIRWRPPRLPRPRPRPWPLPRP | -0.273 |
| RRIRWRPPRLPRPRPRPIYGPRP | -0.0358 |
| RRIRRRPPRLPRPRPRPIFPPRP | 0.69 |
| RRIRTRPPRLPRPRPRPAICPRP | -0.552 |
| RRIRNRPPRLPRPRPRPPKWPRP | 0.411 |
| RRIRPRPPRLPRPRPRPDHVPRP | -0.474 |
| RRIRMRPPRLPRPRPRPKDQPRP | 2.28 |
| RRIRIRPPRLPRPRPRPCMWPRP | -1.51 |
| RRIRSRPPRLPRPRPRPFQIPRP | 0.0213 |
| RRIRDRPPRLPRPRPRPYHYPRP | -0.688 |
| RRIRRRPPRLPRPRPRPCKFPRP | 0.123 |
| RRIRLRPPRLPRPRPRPTCQPRP | 0.0421 |
| RRIRARPPRLPRPRPRPPPCPRP | 0.979 |
| RRIRRRPPRLPRPRPRPSILPRP | 0.197 |

| Sequence | shrunken log2 fold change |
| --- | --- |
| RRIRQRPPRLPRPRPRPGHFPRP | -0.0162 |
| RRIRSRPPRLPRPRPRPANQPRP | -0.116 |
| RRIRTRPPRLPRPRPRPARHPRP | 0.189 |
| RRIRMRPPRLPRPRPRPRKSPRP | 0.902 |
| RRIRCRPPRLPRPRPRPVTAPRP | 0.108 |
| RRIRGRPPRLPRPRPRPHEEPRP | 0.383 |
| RRIRWRPPRLPRPRPRPDVCPRP | -0.0101 |
| RRIRVRPPRLPRPRPRPTVHPRP | -0.0675 |
| RRIRIRPPRLPRPRPRPEVSPRP | 0.068 |
| RRIRCRPPRLPRPRPRPSMSPRP | -0.273 |
| RRIRFRPPRLPRPRPRPIHKPRP | -0.775 |
| RRIRERPPRLPRPRPRPYTDPRP | -0.956 |
| RRIRTRPPRLPRPRPRPWRPPRP | 0.00182 |
| RRIRCRPPRLPRPRPRPVQFPRP | 0.13 |
| RRIRPRPPRLPRPRPRPNAMPRP | -0.324 |
| RRIRDRPPRLPRPRPRPDEKPRP | 0.0291 |
| RRIRSRPPRLPRPRPRPAYQPRP | -0.151 |
| RRIRWRPPRLPRPRPRPNVQPRP | -0.0399 |
| RRIRKRPPRLPRPRPRPNSHPRP | -0.272 |
| RRIRSRPPRLPRPRPRPRLEPRP | 0.596 |
| RRIRVRPPRLPRPRPRPTDSPRP | -0.115 |
| RRIRMRPPRLPRPRPRPSSSPRP | 0.0411 |

| Sequence | shrunken log2 fold change |
| --- | --- |
| RRIRIRPPRLPRPRPRPEPDPRP | -0.00501 |
| RRIRSRPPRLPRPRPRPFVPPRP | -0.27 |
| RRIRFRPPRLPRPRPRPCQNPRP | 0.0482 |
| RRIRYRPPRLPRPRPRPCRVPRP | 0.00293 |
| RRIRYRPPRLPRPRPRPCDFPRP | -0.227 |
| RRIRTRPPRLPRPRPRPSYVPRP | -0.305 |
| RRIRHRPPRLPRPRPRPALFPRP | -0.0554 |
| RRIRKRPPRLPRPRPRPMPPPRP | 0.729 |
| RRIRTRPPRLPRPRPRPMRCPRP | -0.117 |
| RRIRCRPPRLPRPRPRPMENPRP | 0.0267 |
| RRIRARPPRLPRPRPRPRCNPRP | 0.197 |
| RRIRDRPPRLPRPRPRPQHCPRP | 0.0461 |
| RRIRNRPPRLPRPRPRPWGMPRP | -0.214 |
| RRIRWRPPRLPRPRPRPGNLPRP | -0.00261 |
| RRIRQRPPRLPRPRPRPIEIPRP | -0.0062 |
| RRIRCRPPRLPRPRPRPHKTPRP | -0.0871 |
| RRIRMRPPRLPRPRPRPGKMPRP | 0.137 |
| RRIRWRPPRLPRPRPRPSQDPRP | 0.22 |
| RRIRHRPPRLPRPRPRPHLTPRP | -0.0621 |
| RRIRPRPPRLPRPRPRPVFLPRP | -0.128 |
| RRIRERPPRLPRPRPRPCRKPRP | -0.103 |
